Test results: patent publication US20090143241

Tests used:
[1] = test system: IXP1, cyclic SGWYGRRH peptide
[2] = test system: GFP-tag (EGFP with the tmRNA peptide tag AANDENYALAA at the C terminus) [GFP: P42212]

| Substance | rate of ClpX ATP hydrolysis [1] | rate of ClpX ATP hydrolysis with GFP-tag included [1] | rate of GFP-tag proteolysis [1] | KM of GFP-tag degradation (ClpXP with SspB) [2] | KM of GFP-tag degradation (ClpXP with SspB, no cyclic peptide) [2] | kcat of GFP-tag degradation (ClpXP with SspB) [2] | kcat of GFP-tag degradation (ClpXP with SspB, no cyclic peptide) [2] |
| --- | --- | --- | --- | --- | --- | --- | --- |
| ClpX (E. coli), N-terminally His6-tagged | The rate of ClpX ATP hydrolysis was not inhibited by IXP1 at concentrations up to 200 µM | IXP1 still had no effect on ClpX activity | – | – | – | – | – |
| ClpXP protease (E. coli ClpX6 with ClpP14) | – | – | Inclusion of purified IXP1 reduced the rate of GFP-tag proteolysis | KM=0.74±0.04 | KM=0.74±0.04 µM | kcat=1.79±0.08 min-1 | kcat=1.79±0.08 min^-1 |
